The text below walks through data of article PMC6508567, “Noncanonical interactions between serpin and β‐amylase in barley grain improve β‐amylase activity in vitro” (Plant Direct, 2018).

The series concerns the molecule itself. Description: cross-linking; purified proteins in PBS oxidised with 5, 10 and 20 μM CuCl2 for 10 min (disulfide bonds), non-reducing 10% SDS-PAGE, immunoblot; β-amylase alone or mixed with serpin Z4 at 1:2 and 1:5. (In general: Immunoblotting shows a protein as a band on a membrane.)

B1: serpin Z4 (natural protein, barley (Hordeum vulgare) cv. Harrington, UniProt P06293 1-399, looked up)
chain: MATTLATDVRLSIAHQTRFALRLRSAISSNPERAAGNVAFSPLSLHVALSLITAGAAATRDQLVAILGDGGAGDAKELNALAEQVVQFVLANESSTGGPRIAFANGIFVDASLSLKPSFEELAVCQYKAKTQSVDFQHKTLEAVGQVNSWVEQVTTGLIKQILPPGSVDNTTKLILGNALYFKGAWDQKFDESNTKCDSFHLLDGSSIQTQFMSSTKKQYISSSDNLKVLKLPYAKGHDKRQFSMYILLPGAQDGLWSLAKRLSTEPEFIENHIPKQTVEVGRFQLPKFKISYQFEASSLLRALGLQLPFSEEADLSEMVDSSQGLEISHVFHKSFVEVNEEGTEAGAATVAMGVAMSMPLKVDLVDFVANHPFLFLIREDIAGVVVFVGHVTNPLISA
notes: serpin Z4 of barley (Hordeum vulgare) cv; Harrington, cloned from cDNA into pET28-(a); In one direction of the MST experiment the protein carried an NHS-ester fluorescent dye; in one direction of the SPR experiment it was amine-coupled to a CM5 chip; source: E. coli SHuffle cells, purified (Ni-NTA, gel filtration on Superdex 200 Increase)
With B1, the binding result is listed as “binds”.
